Measurements taken from patent publication US20230272086A1 (CHIA TAI TIANQING PHARMACEUTICAL GROUP, published 2023).

T1: cynomolgus monkey ST2 on HEK293T-Cyno-ST2-NFκB-Luciferase cells (cynomolgus monkey, UniProt Q01638 19-556 (human entry))
T1 chain: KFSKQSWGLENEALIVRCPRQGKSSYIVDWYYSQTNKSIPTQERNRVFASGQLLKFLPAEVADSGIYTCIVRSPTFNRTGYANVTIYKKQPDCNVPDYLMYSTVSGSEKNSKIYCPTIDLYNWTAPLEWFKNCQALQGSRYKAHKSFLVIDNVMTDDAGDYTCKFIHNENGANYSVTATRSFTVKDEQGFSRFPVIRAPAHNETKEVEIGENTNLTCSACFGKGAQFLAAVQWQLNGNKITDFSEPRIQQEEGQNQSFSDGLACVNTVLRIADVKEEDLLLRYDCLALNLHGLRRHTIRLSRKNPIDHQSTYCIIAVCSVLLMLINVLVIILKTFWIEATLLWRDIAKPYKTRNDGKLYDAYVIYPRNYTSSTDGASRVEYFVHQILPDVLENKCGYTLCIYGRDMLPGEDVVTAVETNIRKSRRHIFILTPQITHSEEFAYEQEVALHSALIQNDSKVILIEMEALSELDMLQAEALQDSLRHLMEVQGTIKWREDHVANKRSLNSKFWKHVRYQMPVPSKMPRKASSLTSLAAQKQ

T2: recombinant protein containing hST2 extracellular domain with mouse antibody heavy chain Fc tag (hST2-ECD-mFc) (human)
T2 construct: Used for SPR and for ELISA of chimeric and humanized antibodies; also called human ST2 antigen
T2 chain: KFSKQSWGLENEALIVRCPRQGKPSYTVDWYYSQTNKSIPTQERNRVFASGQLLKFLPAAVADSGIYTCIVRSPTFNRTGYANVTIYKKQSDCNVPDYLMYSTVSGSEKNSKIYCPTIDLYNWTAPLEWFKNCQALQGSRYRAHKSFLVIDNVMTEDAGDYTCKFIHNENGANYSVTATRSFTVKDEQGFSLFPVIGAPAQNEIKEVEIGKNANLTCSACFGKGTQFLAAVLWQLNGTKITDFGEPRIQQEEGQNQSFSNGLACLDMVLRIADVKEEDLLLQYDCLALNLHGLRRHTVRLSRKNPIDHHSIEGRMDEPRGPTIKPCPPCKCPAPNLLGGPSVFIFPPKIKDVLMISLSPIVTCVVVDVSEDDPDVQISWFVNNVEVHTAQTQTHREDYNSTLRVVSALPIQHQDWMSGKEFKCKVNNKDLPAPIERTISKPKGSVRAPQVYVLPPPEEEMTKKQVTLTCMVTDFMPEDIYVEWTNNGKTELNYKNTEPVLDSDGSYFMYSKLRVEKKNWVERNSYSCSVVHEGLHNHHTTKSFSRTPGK

T3: cynomolgus monkey ST2 antigen (Cyno-ST2-his, Sino biological, 90915-C08H) (cynomolgus monkey, UniProt Q01638 19-328 (human entry))
T3 construct: Bought protein; not shown: his tag
T3 chain: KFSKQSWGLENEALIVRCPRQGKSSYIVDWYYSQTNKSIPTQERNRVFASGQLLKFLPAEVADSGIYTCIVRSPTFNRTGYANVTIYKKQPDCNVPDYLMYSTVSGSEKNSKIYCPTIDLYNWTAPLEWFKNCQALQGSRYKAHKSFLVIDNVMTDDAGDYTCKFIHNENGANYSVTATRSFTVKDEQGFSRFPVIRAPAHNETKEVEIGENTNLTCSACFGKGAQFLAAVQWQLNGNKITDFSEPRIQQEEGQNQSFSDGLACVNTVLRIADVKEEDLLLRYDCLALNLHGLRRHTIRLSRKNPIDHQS


How the values were obtained:
[1] = target: T1, cynomolgus monkey ST2 on …; test: flow cytometry on HEK293T-Cyno-ST2-NFκB-Luciferase cells
Protocol: The binding capacity of the anti-ST2 antibodies to hST2-overexpressing cell lines and cyno-ST2-overexpressing cell lines was analyzed using an FACS-based method through binding assays with the hST2 (SEQ ID NO:1)-overexpressing HEK293T cell line (HEK293T-hST2-NFκB-Luciferase) and the cynomolgus monkey ST2 (SEQ ID NO: 10)-overexpressing HEK293T cell line (HEK293T-Cyno-ST2-NFKB-Luciferase). HEK293 cells were transfected with the pLenti6.3- hST2 plasmid and the pLenti6.3-NFκB-luciferasae plasmid using a lentiviral transfection system to construct the cell line HEK293T-hST2-NFκB-Luciferase. HEK293T cells were transfected with the pLenti6.3-cynoST2 plasmid and the pLenti6.3-NFκB-luciferasae plasmid to construct the cell line HEK293T-Cyno-ST2-NFκB-Luciferase.
3 × 10⁵ HEK293T-hST2-NFκB-Luciferase or HEK293T-Cyno-ST2-NFκB-Luciferase cells were added to a 96-well culture plate. Serially diluted anti-ST2 antibodies (serially diluted 4-fold from an initial concentration of 667 nM to 8 concentrations in binding assays with the HEK293T-hST2-NFκB-Luciferase cells; serially diluted 4-fold from an initial concentration of 400 nM to 8 concentrations in binding assays with the HEK293T-Cyno-ST2-NFκB-Luciferase cells) were added to the cell suspensions. After the plate was incubated at room temperature for 60 min, the cells were washed 3 times with PBS. […] The cells were washed 3 times with PBS and resuspended in 100 µ1L of PBS, and then the fluorescence signals were analyzed and detected using a flow cytometer (BD, Accuri C6). The binding capacity of the anti-ST2 antibodies to hST2 and cyno-ST2 on the cell line surfaces was measured in terms of the mean fluorescence intensity (MFI) of staining. The data were analyzed using GraphPad Prism5, and the EC₅₀ values were calculated. The EC₅₀ values for the binding of the anti-ST2 chimeric antibodies to hST2 and Cyno-ST2 at the cellular level are shown in Table 8 and FIGS. 7-8.

[2] = target: T2, recombinant protein containing hST2 …; test: SPR (Biacore T200), hST2-ECD-mFc captured by anti-mouse IgG on CM5, antibody as analyte, 1:1 model
Protocol: (§1) The reaction signals were detected in real time using a Biacore instrument (Cytiva, BiacoreT200), and then an association-dissociation curve was obtained. After the completion of dissociation in each cycle, the biochip was regenerated with a regeneration solution for the next capture; the procedure was repeated until the affinity of the different antibodies for ST2 was determined. The acquired data were finally analyzed using the GE BIAevaluation software with a 1:1 (Langmuir) binding model to determine the association rate constants ka (kon) and the dissociation rate constants kd (koff), and the dissociation constants KD were given by KD = kd/ka. The determined affinity of the anti-ST2 antibody for human ST2 antigen (hST2-ECD-mFc), cynomolgus monkey ST2 antigen (Cyno-ST2-his, Sino biological, 90915-C08H) and the determined affinity of the anti-ST2 chimeric antibodies for ST2 were shown in Table 5.

[3] = target: T3, cynomolgus monkey ST2 antigen …; test: SPR (Biacore T200), Cyno-ST2-his captured by anti-his antibody on CM5, antibody as analyte, 1:1 model
Protocol: as §1

| Binder | EC50 [1] | Kd [2] | Kd [3] |
| --- | --- | --- | --- |
| Chimeric 31C8 (antibody, human IgG2, kappa, V domains shown, also called xi31C8) VH: QVQLQQSGPELVRPGASVTLSCKASGYIFIDSEMHWVKQTPVHGLEWIGAIDPETGDTVYNQKFKGKATLTADKSSSTASMELSSLTSEDSAVYYCTGSTTDYYFAYWGQGTTLTVSS VL: DIVMTQAAFSNPVTLGTSASISCRSSKSLLHSNGIIYLYWYLQKPGQSPQLLIYQMSNLASGVPDRFSSSGSGTDFTLRISRVEAEDVGVYYCAQNLELPFTFGSGTKLEIKR | 0.83 nM | 0.0177 nM | 0.323 nM |
| Chimeric 3C6 (antibody, human IgG2, kappa, V domains shown, also called xi3C6) VH: QVQLQQSGAEVVRPGASVTLSCKASDYTITDYEMHWVKQTPVHGLEWIGAIDPETGDTAYSQNFKGKATLTADESSSTAYMELSSLTSEDSAVYYCSRSATDYYFASWGQGTTLTVSS VL: DIVMTQAAISNPVTLGTSASMSCRSSKSLLHSNGITYLYWYLQKPGHSPQLLIYQMSNLASGVPDRFSSSGSGTDFTLKISRVEAEDVGVYYCAQNLELPFTFGSGTKLEIKR | 105 nM | 0.0872 nM | 152 nM |
| Chimeric 26A1 (antibody, human IgG2, kappa, V domains shown, also called xi26A1) VH: QVQLQQSGAELVRPGASVTLSCKASDYIFTDSEIHWVKQTLVHGLEWIGAIDPETGDTAYNQKFKGKATLTADKSSSTAYMELSSLTSEGSAVYYCSGSTTDCYFAYWGQGTTLTVSS VL: DIVMTQAAFSNPVTLGTSASISCRSSKSLLHSNGIIYLYWYLQKPGQSPQLLIYQMSNLASGVPDRFSSSGSGTDFTLRISRVEAEDVGVYYCAQNLELPFTFGSGTKLEIKR | 415 nM | 0.0299 nM | 69.8 nM |
| RG6149 (antibody Ab2 in CN104334582, prepared in-house) (antibody, human IgG2, kappa, V domains shown, Control anti-ST2 antibody) VH: EVQLVQSGAEVKKPGESLKISCKGSGYSFTNYWIGWVRQMPGKGLEWMGIIYPGNSDTRFSPSFQGQVTISADKSITTAYLQWSSLKASDTAMYYCARHGTSSDYYGLDVWGQGTTVTVSS VL: not shown | 0.647 nM | 0.0686 nM | 0.049 nM |

The next binders have a lower EC50 [1] than those just listed; values first:

| EC50 [1] | Kd [2] | Kd [3] | Binder |
| --- | --- | --- | --- |
| 0.458 nM | 0.0933 nM | 4.04 nM | Chimeric 8F4 (antibody, human IgG2, kappa, V domains shown, also called xi8F4) VH: QVQLQQSGAELVRPGASVTLSCKASGHIFTDYEMQWVKQTPVHGLEWIGAFDPETGDTAYNQKFKGKATLTADKSSSTAYMELSSLTSEDSAVYYCSGSTTDYYFAYWGQGTSLTVSS VL: DVVMTQTAFSNPVTLGTSASISCRSSKSLLHSNGIIYLYWYLQKPGQSPQLLIYQMSNLASGVPDRFSSSGSGTDFTLRISRVEAEDVGVYYCAQNLELPFTFGSGTKLEIKR |
| 0.394 nM | 0.145 nM | 0.124 nM | Chimeric 7D1 (antibody, human IgG2, kappa, V domains shown, also called xi7D1) VH: QVQLQQSGAELVRPGASVTLSCKASGYTFTDYEMHWVKQTPVHGLDWIGTIDPETGDTAYNQKFKGRATLTADKSSSTAYMELSSLTSEDSAVYYCTRYSYTNSPYGMDYWGQGTSVTVSS VL: DVVMTQTPKFLLVSAGDRVTITCKASQSVSNDVAWYQQKPGQSPKLLIYYASNRYTGVPDRFTGSGYGTDFTFTINTVQAEDLAVYFCQQDYSSPYTFGGGTKLEIKR |
| 0.487 nM | 0.0541 nM | 0.0257 nM | Chimeric 17E2 (antibody, human IgG2, kappa, V domains shown, also called xi17E2) VH: QVQLQQSGAELVRPGASVTLSCKASGYTFTDYEMHWVKQTPVLGLEWIGAIDPETGDTAYNQKFKGKATLTADKSSSTAYMELSSLASEDSAVYYCIRVDSNYDYFDYWGQDTTLTVSS VL: DIVLTQSPPILSASPGEKVTMTCRASSSVSYMHWYQQKPGSSPKPWIYDTSNLASGVPARFSGSGSGTSYSLTISRVEAEDAATYYCQQWSSNPLTFGAGTKLELKR |
